Source: PMC9816786 (2022)

Biological target: T1, PCSK9 (Homo sapiens (Human), UniProt Q8NBP7)
T1 chain: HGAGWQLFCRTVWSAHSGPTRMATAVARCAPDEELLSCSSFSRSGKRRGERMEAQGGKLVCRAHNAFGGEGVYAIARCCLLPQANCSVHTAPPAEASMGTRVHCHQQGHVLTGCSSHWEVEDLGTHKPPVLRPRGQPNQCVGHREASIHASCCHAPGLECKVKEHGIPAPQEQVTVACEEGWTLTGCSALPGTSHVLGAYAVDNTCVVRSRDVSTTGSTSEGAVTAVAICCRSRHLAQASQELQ
Assay: BLI; pH 7.5

B1: CAP1 (protein)
chain: ADMQNLVERLERAVGRLEAVSHTSDMHRGYADSPSKAGAAPYVQAFDSLLAGPVAEYLKISKEIGGDVQKHAEMVHTGLKLERALLVTASQCQQPAENKLSDLLAPISEQIKEVITFREKNRGSKLFNHLSAVSESIQALGWVAMAPKPGPYVKEMNDAAMFYTNRVLKEYKDVDKKHVDWVKAYLSIWTELQAYIKEFHTTGLAWSKTGPVAKELSGLPSGPSAGSCPPPPPPCPPPPPVSTISCSYESASRSSLFAQINQGESITHALKHVSDDMKTHKNPALKAQSGPVRSGPKPFSAPKPQTSPSPKRATKKEPAVLELEGKKWRVENQENVSNLVIEDTELKQVAYIYKCVNTTLQIKGKINSITVDNCKKLGLVFDDVVGIVEIINSKDVKVQVMGKVPTISINKTDGCHAYLSKNSLDCEIVSAKSSEMNVLIPTEGGDFNEFPVPEQFKTLWNGQKLVTTVTEIAG
- Kd: 1360 nM
